The values below are quoted from earlier work in paper PMC4621241.

In the series the target is MetQ (Escherichia coli) (UniProt P28635).

pKd: −log10 of the molar value.

MetNI, sequence (P30750 whole entry): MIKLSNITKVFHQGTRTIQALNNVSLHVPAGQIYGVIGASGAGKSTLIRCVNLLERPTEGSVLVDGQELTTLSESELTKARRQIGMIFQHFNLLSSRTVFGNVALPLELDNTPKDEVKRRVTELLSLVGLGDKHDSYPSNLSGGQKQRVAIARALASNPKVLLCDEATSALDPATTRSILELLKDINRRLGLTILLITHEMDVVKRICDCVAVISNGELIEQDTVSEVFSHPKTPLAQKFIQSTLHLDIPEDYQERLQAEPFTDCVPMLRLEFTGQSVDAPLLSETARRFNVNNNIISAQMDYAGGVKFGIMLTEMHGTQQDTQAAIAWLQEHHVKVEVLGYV
MetNI, sequence (P31547 whole entry, further chain): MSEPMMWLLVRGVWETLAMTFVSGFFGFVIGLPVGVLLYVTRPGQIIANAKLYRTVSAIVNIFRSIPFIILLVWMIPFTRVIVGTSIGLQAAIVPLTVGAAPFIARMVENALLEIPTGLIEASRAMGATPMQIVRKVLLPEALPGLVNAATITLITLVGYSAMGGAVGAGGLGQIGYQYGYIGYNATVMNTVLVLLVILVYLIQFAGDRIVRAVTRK
MetQ (Escherichia coli), sequence (P28635 23-271): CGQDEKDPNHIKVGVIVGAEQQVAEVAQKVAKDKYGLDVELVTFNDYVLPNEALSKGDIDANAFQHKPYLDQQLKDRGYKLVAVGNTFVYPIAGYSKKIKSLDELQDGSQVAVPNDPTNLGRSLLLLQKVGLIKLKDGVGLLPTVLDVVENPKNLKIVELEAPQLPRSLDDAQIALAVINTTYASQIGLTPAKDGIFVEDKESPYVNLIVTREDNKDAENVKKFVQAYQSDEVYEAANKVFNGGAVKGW

MetNI (from UniProt P30750): the pKd is 4.13.
